Consider one protein from publication PMC10170503, “Oral Delivery of Nanoparticles Carrying Ancestral Uricase Enzyme Protects against Hyperuricemia in Knockout Mice” (Biomacromolecules, 2023).

The data set concerns the molecule itself. Description: microfluidic denaturing gel electrophoresis (Bioanalyzer); Agilent Bioanalyzer 2100, Protein 80 chip; purified Qβ-wt and Qβ@AncUOX particles; dimer band left by incomplete denaturation.

B1: Qβ capsid protein (coat protein), assembled as virus-like particle (natural protein, Qβ (bacteriophage, as named), UniProt P03615 1-133, looked up)
chain: MAKLETVTLGNIGKDGKQTLVLNPRGVNPTNGVASLSQAGAVPALEKRVTVSVSQPSRNRKNYKVQVKIQNPTACTANGSCDPSVTRQAYADVTFSFTQYSTDEERAFVRTELAALLASPLLIDAIDQLNPAY
notes: also called Qβ CP; CP; source: E. coli BL21 (DE3), co-expressed with Rev-tagged AncUOX from a bicistronic pCDF-1b plasmid; VLPs purified (ammonium sulfate precipitation, n-butanol:chloroform extraction, sucrose density ultracentrifugation)
Regarding B1, the “stoichiometry N” value worked out at 2.

Usually stoichiometry N stands for the number of molecules, sites or subunits per partner or assembly.
